Patent US20180022822A1, “NOVEL ANTI-FIBROBLAST ACTIVATION PROTEIN (FAP) BINDING AGENTS AND USES THEREOF” (Mabimmune Diagnostics AG, priority 2016, published 2018)

T1: captured FAP (sFAP) (Homo sapiens, UniProt Q12884)
T1 sequence (Q12884 1-760): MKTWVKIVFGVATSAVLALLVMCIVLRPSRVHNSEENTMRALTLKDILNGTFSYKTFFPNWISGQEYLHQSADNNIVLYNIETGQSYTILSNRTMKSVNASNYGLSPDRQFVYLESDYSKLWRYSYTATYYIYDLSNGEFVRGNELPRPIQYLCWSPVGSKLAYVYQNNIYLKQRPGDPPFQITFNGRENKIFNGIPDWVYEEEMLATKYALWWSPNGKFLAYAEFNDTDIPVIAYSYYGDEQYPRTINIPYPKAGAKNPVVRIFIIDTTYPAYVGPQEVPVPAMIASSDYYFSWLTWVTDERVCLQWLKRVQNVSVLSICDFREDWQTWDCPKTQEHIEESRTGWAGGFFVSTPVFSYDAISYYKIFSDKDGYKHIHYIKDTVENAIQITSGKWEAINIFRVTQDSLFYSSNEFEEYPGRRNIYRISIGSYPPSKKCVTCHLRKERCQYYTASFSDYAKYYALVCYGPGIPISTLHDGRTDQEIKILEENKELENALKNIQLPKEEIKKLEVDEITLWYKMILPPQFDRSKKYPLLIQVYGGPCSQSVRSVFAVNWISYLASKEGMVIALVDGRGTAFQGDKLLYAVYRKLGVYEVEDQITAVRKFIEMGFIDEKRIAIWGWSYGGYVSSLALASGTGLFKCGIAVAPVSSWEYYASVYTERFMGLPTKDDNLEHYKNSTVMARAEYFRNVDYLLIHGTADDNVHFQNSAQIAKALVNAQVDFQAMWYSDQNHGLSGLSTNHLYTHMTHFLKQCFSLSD

T2: transmembrane human FAP on FAP expressing HEK293 cells (Homo sapiens, UniProt Q12884)
T2 construct: HEK293 cells were transduced with retrovirus encoding full length human FAP cDNA; host or cells: HEK293 (retroviral transduction, G418 selected)
T2 sequence (Q12884 1-760): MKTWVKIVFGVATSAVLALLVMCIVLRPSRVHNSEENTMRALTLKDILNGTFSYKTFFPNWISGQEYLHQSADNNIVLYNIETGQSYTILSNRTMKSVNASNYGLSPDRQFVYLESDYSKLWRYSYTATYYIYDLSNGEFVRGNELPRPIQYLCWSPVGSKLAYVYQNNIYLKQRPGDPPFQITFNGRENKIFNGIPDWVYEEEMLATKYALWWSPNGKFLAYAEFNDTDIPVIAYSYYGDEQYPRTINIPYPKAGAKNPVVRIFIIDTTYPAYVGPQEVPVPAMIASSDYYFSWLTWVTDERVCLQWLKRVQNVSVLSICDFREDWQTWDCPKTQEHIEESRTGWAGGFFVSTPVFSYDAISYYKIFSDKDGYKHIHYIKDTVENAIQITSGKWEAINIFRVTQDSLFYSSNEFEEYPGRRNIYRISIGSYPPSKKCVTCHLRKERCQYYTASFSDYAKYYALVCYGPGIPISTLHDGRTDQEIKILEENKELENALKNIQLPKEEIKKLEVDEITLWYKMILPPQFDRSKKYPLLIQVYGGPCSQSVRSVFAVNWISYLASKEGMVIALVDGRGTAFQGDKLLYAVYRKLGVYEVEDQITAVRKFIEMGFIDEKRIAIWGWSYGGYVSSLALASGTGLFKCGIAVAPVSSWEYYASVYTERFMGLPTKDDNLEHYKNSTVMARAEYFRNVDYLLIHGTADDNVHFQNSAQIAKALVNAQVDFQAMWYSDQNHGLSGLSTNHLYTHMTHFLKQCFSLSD

T3: directly coated FAP (FAP) (Homo sapiens, UniProt Q12884)
T3 sequence (Q12884 1-760): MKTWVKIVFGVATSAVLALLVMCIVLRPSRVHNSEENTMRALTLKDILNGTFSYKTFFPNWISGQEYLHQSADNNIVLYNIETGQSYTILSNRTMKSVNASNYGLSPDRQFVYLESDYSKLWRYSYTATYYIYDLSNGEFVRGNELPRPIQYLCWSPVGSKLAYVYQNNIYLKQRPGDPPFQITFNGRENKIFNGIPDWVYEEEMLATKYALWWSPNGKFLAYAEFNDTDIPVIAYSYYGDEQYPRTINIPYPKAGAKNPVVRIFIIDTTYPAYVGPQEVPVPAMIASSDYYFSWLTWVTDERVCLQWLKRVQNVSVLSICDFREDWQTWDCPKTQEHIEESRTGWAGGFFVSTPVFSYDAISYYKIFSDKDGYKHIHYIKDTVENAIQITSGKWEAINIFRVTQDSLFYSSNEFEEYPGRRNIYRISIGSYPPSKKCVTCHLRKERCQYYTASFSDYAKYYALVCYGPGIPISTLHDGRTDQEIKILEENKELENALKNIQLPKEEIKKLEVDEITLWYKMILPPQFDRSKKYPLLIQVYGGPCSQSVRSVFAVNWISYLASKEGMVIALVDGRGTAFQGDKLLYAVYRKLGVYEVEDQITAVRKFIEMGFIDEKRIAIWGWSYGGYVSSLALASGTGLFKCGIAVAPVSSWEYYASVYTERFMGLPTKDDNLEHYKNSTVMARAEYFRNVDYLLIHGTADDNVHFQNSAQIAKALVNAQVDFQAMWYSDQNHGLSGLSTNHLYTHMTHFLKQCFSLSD

B1: NI-206.17A6: human-derived recombinant anti-FAP antibody; VH SEQ ID NO: 24, VK SEQ ID NO: 26 (antibody, listed as Homo sapiens, V domains shown)
VH: QVQLQESGPGLVRSTETLSLTCLVSGDSINSHYWSWLRQSPGRGLEWIGYIYYTGPTNYNPSLKSRVSISLGTSKDQFSLKLSSVTAADTARYYCARNKVFWRGSDFYYYMDVWGKGTTVTVSS
VL: EIVLTQSPGTLSLSLGERATLSCRASQSLANNYLAWYQQKPGQAPRLLMYDASTRATGIPDRFSGSGSGTDFTLTISRLEPEDFAVYYCQQFVTSHHMYIFGQGTKVEIK
B2: NI-206.59B4: human-derived recombinant anti-FAP antibody; VH SEQ ID NO: 8, VL SEQ ID NO: 10 (antibody, listed as Homo sapiens, V domains shown)
VH: QVQLVQSGAEVKKPGASVKVSCKTSGYTFTDYYIHWVRQAPGQGLEWMGWINPNRGGTNYAQKFQGRVTMTRDTSIATAYMELSRLRSDDTAVYYCATASLKIAAVGTFDCWGQGTLVTVSS
VL: SYELTQPPSVSVSPGQTARITCSGDALSKQYAFWFQQKPGQAPILVIYQDTKRPSGIPGRFSGSSSGTTVTLTISGAQADDEADYYCQSADSSGTYVFGTGTKVTVL
B3: NI-206.22F7: human-derived recombinant anti-FAP antibody; VH SEQ ID NO: 12, VL SEQ ID NO: 14 (antibody, listed as Homo sapiens, V domains shown)
VH: EVQLVETGGGVVQPGRSLRLSCAASGFSFSTHGMYWVRQPPGKGLEWVAVISYDGSDKKYADSVKGRFTISRDNSKNTVYLEMSSVRAEDTALYYCFCRRDAFDLWGQGTMVTVSS
VL: SYVLTQPPSVSVSPGQTARITCSGDALPKKYAYWYQQKSGQAPVLVIYEDTKRPSGIPERFSGSSSGTMATLTISGAQVEDEADYYCYSTDSSGNYWVFGGGTEVTVL
B4: NI-206.27E8: human-derived recombinant anti-FAP antibody; VH SEQ ID NO: 16, VL SEQ ID NO: 18 (antibody, listed as Homo sapiens, V domains shown)
VH: EVQLVESGGGLVEPGGSLRLSCAASGFTFSDAWMNWVRQAPGKGLEWVGRIKTKSDGGTTDYAAPVRGRFSISRDDSKNTLFLEMNSLKTEDTAIYYCFITVIVVSSESPLDHWGQGTLVTVSS
VL: SYELTQPPSVSVSPGQTARITCSGDELPKQYAYWYQQKPGQAPVLVIYKDRQRPSGIPERFSGSSSGTTVTLTISGVQAEDEADYYCQSAYSINTYVIFGGGTKLTVL
B5: NI-206.12G4: human-derived recombinant anti-FAP antibody; VH SEQ ID NO: 20, VL SEQ ID NO: 22 (antibody, listed as Homo sapiens, V domains shown)
VH: EVQLVESGGGLVKPGGSLRLSCAASGFTFSDYYMSWIRQAPGKGLEWISYISSGSSYTNYADSVKGRFTISRDNAKKSVYLEVNGLTVEDTAVYYCARVRYGDREMATIGGFDFWGQGTLVTVSS
VL: SYELTQPPSVSVSPGQTARITCSGDALPKQYAYWYQQSPGQAPVLVIYKDSERPSGIPERFSGSSSGTTVTLTISGVQAEDEADYYCQSADSGGTSRIFGGGTKLTVL

How the values were obtained:
[1] = system: directly coated FAP peptides mixture (cFAP); experiment: direct ELISA on coated mixture of FAP peptides; type: binding, human; conditions: peptides 378-392, 622-636, 721-736
Description: (§1) ELISA assays were performed with varying antibody concentrations to validate the binding of the exemplary antibodies of the present invention to FAP and to be able to determine their half maximal effective concentration (EC50). For the exemplary recombinant human NI-206-18H2, NI-206-20A8, NI-206-6D3, ‘NI-206-14C5, NI-206-34C11, NI-206.82C2, NI-206.59B4, NI-206.22F7, NI-206.27E8, NI-206.12G4 and NI-206.17A6 antibodies, 96-well microplates (Costar, Corning, USA) were coated with FAP, with a mixture of the 3 peptides or with BSA (Sigma-Aldrich, Buchs, Switzerland) diluted to a concentration of 5 μg/ml in carbonate ELISA coating buffer (15 mM Na2CO3, 35 mM NaHCO3, pH 9.4) for the direct ELISA. For the capture ELISA, the microplates were coated with mouse anti-His monoclonal antibody (Clontech) diluted to a concentration of 3 μg/ml in PBS, the plates were then blocked, FAP or BSA were diluted to a concentration of 2 μg/ml in PBS and added to the plates to be captured. The binding efficiency of the antibodies was then tested.
(§2) The EC50 values were estimated by a non-linear regression using GraphPad Prism (San Diego, USA) software. […] The binding of NI-206.12G4 towards sFAP was not tested.

[2] = target: T1, captured FAP (sFAP); experiment: capture ELISA, FAP captured via his-tag with coated anti-His antibody; type: binding
Description: as §1, §2

[3] = target: T2, transmembrane human FAP on FAP expressing HEK293 cells; experiment: flow cytometry of Cy5 labelled antibodies on FAP-HEK293 cells in pH adjusted PBS; type: cell-based; conditions: pH 7.4 to 6.2; 0.1-100 nM Cy5 labelled antibody
Description: To evaluate the binding of NI-206.82C2, NI-206.59B4, NI-206.27E8, NI-206.12G4, NI-206.18H2 and NI-206.6D3 to transmembrane human FAP, an FAP expressing HEK293 cell line was received from the National Institutes of Health, Bethesda, Md. The generation of this FAP expressing HEK293 cells is described in: J. Exp. Med. 2013 Vol. 210 No. 6 1125-1135. HEK293 cells were transduced with retrovirus encoding full length human FAP cDNA. Cloning was performed using Fast Cloning Pack and FastDigest restriction enzymes (both from Fermentas). Transient retroviral supernatants were generated by transfecting 293GP cells with the FAP plasmid using Lipofectamine 2000 (Invitrogen). Retroviral supernatants were collected at 48 h after transfection and centrifuged onto Retronectin-coated (10 μg/ml; Takara), non-tissue culture-treated 6-well plates at 2,000 G for 2 h at 32° C. These retroviral supernatants where then used to transduce HEK293 cells overnight. Transduced FAP-HEK293 cells were selected with 1 mg/ml G418 (CellGro).
500′000 FAP-HEK293 cells were incubated for 1 hr at 4° C. either with Cy5 labelled NI-206.82C2, NI-206.59B4, NI-206.27E8, NI-206.12G4, NI-206.18H2 or NI-206.6D3 or with Cy5 labelled 43A11 at four different antibody concentrations (0.1, 1, 10, and 100 nM) in seven different pH-adjusted PBS buffers (pH 7.4, 6.8, 6.6, 6.5, 6.4, 6.3 and 6.2). PBS buffers were adjusted to using MES monohydrate (Sigma Aldrich). Following incubation, cells were washed 3 times with 200 uL in matched pH-adjusted PBS, spun at 400G for 4 min, and resuspended in 200 μL of pH adjusted buffer.
To analyze antibody binding, fluorescent activated flow cytometry was performed using a BD Fortesa device for forward scatter, side scatter, and the mean fluorescent intensity (MFI) of the Cy5 channel was recorded using a […] laser excitation and 600/20 filter. Viable cells were gated by forward and side scatter, and singlets/doublet exclusion, and the MFI for Cy5 was quantified using FlowJo software Version 10.1.

[4] = target: T4, BSA (Bos taurus, UniProt P02769); experiment: ELISA control binding to BSA; set-up: species or system bovine
T4 construct: purchased Sigma-Aldrich
T4 sequence (P02769 25-607): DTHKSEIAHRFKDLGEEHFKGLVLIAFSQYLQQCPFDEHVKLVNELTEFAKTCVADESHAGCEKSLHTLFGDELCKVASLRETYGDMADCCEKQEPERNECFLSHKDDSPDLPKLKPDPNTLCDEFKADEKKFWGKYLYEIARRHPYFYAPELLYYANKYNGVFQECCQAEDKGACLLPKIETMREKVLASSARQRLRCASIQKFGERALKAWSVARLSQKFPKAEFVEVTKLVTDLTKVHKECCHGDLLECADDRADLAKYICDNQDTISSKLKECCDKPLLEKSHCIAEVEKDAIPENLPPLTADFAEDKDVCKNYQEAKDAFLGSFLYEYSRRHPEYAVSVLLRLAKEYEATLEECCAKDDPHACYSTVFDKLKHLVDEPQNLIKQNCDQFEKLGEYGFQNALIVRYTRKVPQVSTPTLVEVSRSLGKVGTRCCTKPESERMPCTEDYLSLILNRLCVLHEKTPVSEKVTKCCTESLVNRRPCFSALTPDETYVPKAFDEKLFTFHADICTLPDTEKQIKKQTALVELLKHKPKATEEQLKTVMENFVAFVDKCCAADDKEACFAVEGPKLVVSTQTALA
Description: as §1

[5] = target: T3, directly coated FAP (FAP); experiment: direct ELISA on directly coated FAP; type: binding
Description: as §1, §2

[6] = ELISA, varying antibody concentrations

Row | Molecule | EC50 to the directly coated FAP peptides mixture (cFAP) [1] | paratope-specific avidity (ΔMFI) under acidic conditions vs. at pH 7.4 [3] | other results
1 | B1 | did not show any binding | – | –
2 | B2 | did not show any binding | increased | binding to the captured FAP [2, 6]: specifically, strongly and similarly bind; binding to BSA [4]: does not bind; binding to the directly coated FAP [5, 6]: specifically, strongly and similarly bind
3 | B3 | – | – | EC50 to the captured FAP (sFAP) ([2]; capture ELISA, non-linear regression, GraphPad Prism): did not show any binding; EC50 to the directly coated FAP (FAP) ([5]; direct ELISA, non-linear regression, GraphPad Prism): did not show any binding
4 | B4 | did not show any binding | increased | –
5 | B5 | did not show any binding | decreases | –
